This note sets out measurements from article PMC9113893, “Carbon Material Hybrid Construction on an Aptasensor for Monitoring Surgical Tumors”.

This data set concerns the target carcinoembryonic antigen (CEA) (human, UniProt P06731 35-685). Nature of the data set: electrochemical aptasensor (interdigitated electrode, sandwich); immobilized aptamer; 0.5-1000 ng/mL CEA in PBS, or spiked in 1:100 human serum; LOD 0.5 ng/mL (not a Kd); PBS or 1:100 diluted human serum; graphene-modified IDE blocked with 1% BSA; pH, salt and temperature not stated. Particulars: protein: commercial.

carcinoembryonic antigen (CEA), sequence (P06731 35-685): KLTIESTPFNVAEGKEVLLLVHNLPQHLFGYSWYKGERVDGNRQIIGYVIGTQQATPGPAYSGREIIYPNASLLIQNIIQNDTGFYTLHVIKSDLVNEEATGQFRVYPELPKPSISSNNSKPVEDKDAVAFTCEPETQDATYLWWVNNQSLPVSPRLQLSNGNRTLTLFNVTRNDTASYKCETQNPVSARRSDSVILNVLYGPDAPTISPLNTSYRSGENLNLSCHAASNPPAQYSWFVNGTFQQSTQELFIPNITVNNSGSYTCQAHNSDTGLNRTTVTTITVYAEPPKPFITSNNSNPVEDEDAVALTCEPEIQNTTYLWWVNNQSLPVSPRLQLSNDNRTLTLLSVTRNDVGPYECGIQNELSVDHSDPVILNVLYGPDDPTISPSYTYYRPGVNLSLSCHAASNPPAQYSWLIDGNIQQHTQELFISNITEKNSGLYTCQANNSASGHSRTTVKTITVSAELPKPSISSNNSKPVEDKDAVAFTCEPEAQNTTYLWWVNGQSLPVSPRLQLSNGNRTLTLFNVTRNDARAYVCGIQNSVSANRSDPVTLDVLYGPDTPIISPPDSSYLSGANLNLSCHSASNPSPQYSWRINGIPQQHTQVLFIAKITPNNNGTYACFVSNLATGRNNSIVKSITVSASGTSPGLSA

For TATCCAGCTTATTCAATT (ssDNA, 3'-NH2) [anti-CEA capture aptamer], the binding result is on record as “binds”.
